Here are results for 19 sequences from a protein production outcome set (Wang et al. 2014).
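Also: failed if final PepcDB status was selected cloned or expressed and not failed if soluble or beyond.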

The nature of this series: label from the status in PepcDB records.
In the case of “MSLDIEQQFLNDLDNQLWRAADKLRSNLDAANYKHVVLGLIFLKYVSDAFEERQQELTELFQKDDDDNIYYLPREDYDSDEAYQQAIAEELEIGDYYTEKNVFWVPKTARWNKLRDVITLPTGSVIWQDEQGEDVKLRSVSWLIDNAFDDIEKANPKLKGILNRISQYQLDADKLIGLINEFSLTSFNNPEYNGEKLNLKSKDILGHVYEYFLGQFALAEGKQGGQYYTPKSIVTLIVEMLEPYKGRVYDPAMGSGGFFVSSDKFIEKHANVKHYNASEQKKQISVYGQESNPTTWKLAAMNMVIRGIDFNFGKKNADSFLDDQHPDLRADFVMTNPPFNMKDWWHEKLADDPRWTINTNGEKRILTPPTGNANFAWMLHMLYHLAPTGSMALLLANGSMSSNTNNEGEIRKTLVEQDLVECMVALPGQLFTNTQIPACIWFLTKDKNAKNGKRDRRGQVLFIDARKLGYMKDRVLRDFKDEDIQKLADTFHNWQQEWSEENNQAGFCFSADLALIRKNDFVLTPGRYVGAEAEEDEGHHHHHH”, the protein production result was “not failed”.

For the sequence “MSLDKIRYGIMSTAQIVPRFVAGLRESAQAEVRGIASRRLENAQKMAKELAIPVAYGSYEELCKDETIDIIYIPTYNQGHYSAAKLALSQGKPVLLEKPFTLNAAEAEELFAIAQEQGVFLMEAQKSVFLPITQKVKATIQEGGLGEILWVQSVTAYPNVDHIPWFYSREAGGGALHGSGSYPLQYLQYVLGKEIQEVTGTATYQQGATDSQCNLALKFAEGTLGNIFINVGLKIPSEMTICGTKGQIVIPNFWKTDCAYYTDAQGNTVKWSEQFTSEFTYEINHVNQCLQDKKLTSPVMTKELTIATVKIVESFYQEWFDNEGHHHHHH”, the protein production entry is “not failed”.

Turning to “MSLDMKEHPDAEVQKNQVLTLEDWKEKWVTRHISFHQEQGHQLLKKHLDTFLKGQSGLRVFFPLCGKAIEMKWFADRGHTVVGVEISEIGIREFFAEQNLSYTEEPLAEIAGAKVFKSSSGSISLYCCSIFDLPRANIGKFDRIWDRGALVAINPGDHDRYADIILSLLRKEFQYLVAVLSYDPTKHAGPPFYVPSAELKRLFGTKCSMQCLEEVDALEERHKAWGLDYLFEKLYLLTEK”, the protein production entry is given as “not failed”.

As for “MSLEALMNVQFFDHAHHKLKIRGLQSPVDVLTFEGREQLSTPFRYDIQFTSSDKAIAPESVLMQDGAFSLTAPPVQGMPVQTALRTLHGVITGFKHLSSSQDEARYEVRLEPRMALLTRSRQNAIYQNQTVPQIVEKILRERHQMRGQDFVFNLKSEYPAREQVMQYGEDDLTFVSRLLSEVGIWFRFATDARLKIEVIEFYDDQSGYERGLTLPLRHPSGLFDGETEAVWGLNTAYSVVEKSVSTRDYNYREATAEMTTGQHDATGGDNTTYGEAYHYADNFLQQGDKEAAESGAFYARIRHERYLNEQAILKGQSTSSLLMPGLEIKVQGDDAPAVFRKGVLITGVTTSAARDRSYELTFTAIPYSERYGYRPALIPRPVMAGTLPARVTSTVKNDIYAHIDKDGRYRVNLDFDRDTWKPGYESLWVRQSRPYAGDTYGLHLPLLAGTEVSIAFEEGNPDRPYIAGVKHDSAHTDHVTIQNEGHHHHHH”, the protein production result was “not failed”.

Take “MSLEDRKNERLPSDLARRATAIIEMPDGVLVTASRGGRYNLPGGKANRGELRSQALIREIREETGLRINSMLYLFDHITPFNAHKVYLCIAQGQPKPQNEIERIALVSSPDTDMDLFVEGRAILRRYARLRNEETAKGEALRALLGLARYIAKVDEGHHHHHH”: the protein production entry is listed as “not failed”.

On to “MSLEEWIKADSLEKADEYHKRYNYAVTNPVRRKILRMLDKGRSEEEIMQTLSLSKKQLDYHLKVLEAGFCIERVGERWVVTDAGKIVDKIRG”, for which the protein production result is “not failed”.

For the sequence “MSLEGFICKFNRKRRLYIENIMQVRVTGILIEDEKVLLVKQKVANRDWSLPGGRVENGETLEEAMIREMREETGLEVKIKKLLYVCDKPDASPSLLHITFLLERIEGEITLPSNEFDHNPIHDVQMVPINELSYYGFSETFINLISGGLANAGSYQGLKRNIGEGHHHHHH”, the protein production result was “not failed”.

Consider “MSLEKLDTNTFEQLIYDEGKACLVMFSRKNCHVCQKVTPVLEELRLNYEESFGFYYVDVEEEKTLFQRFSLKGVPQILYFKDGEYKGKMAGDVEDDEVEQMIADVLED”, for which the protein production result was “not failed”.

As to “MSLELPFSNQSIIPAAHNQKDMEKILELDLTYMVMLETHVAQLKALVKYAQAGGKKVLLHADLVNGLKNDDYAIDFLCTEICPDGIISTRGNAIMKAKQHKMLAIQRLFMIDSSAYNKGVALIQKVQPDCIELLPGIIPEQVQKMTQKLHIPVIAGGLIETSEQVNQVIASGAIAVTTSNKHLWEGHHHHHH”, the protein production result is “not failed”.

Turning to “MSLERFAPIKVERCKDIQKELKKAAAENKLQTEDLWFEILKTSIFIKNSAKDDFSEAFGGELQQLEEEEYYEKKELTLYQTHDIKIKSNAYKRFFEVKVDENLSAIEIILDECFIVLDTEEHYQEMFAYIKECLAFQGVVFRHFSQMYENLKTELRKYQKEAQNKRFILYTSSTFIPNIEEQSHFLLEEEYLPTHTIFLSDQEESFVKENYYIAKENQKVACVNCPKQGRDGRNLKGLYIELPKVAHSPTPIGHDKNAFEEREENNALVYYSKALQGVKMEKGRLVSKQNFIFKNGIKSIETPNLLGGLESGLALEIQARDELSDAIDSNLILEASVINIKGNVGKNVILVAKEITIEGQIHPESYVYANKARITNHKGVCYAKELECKYLERAKVYANSVKVEASAGSVVYAKEIALEKLKSDNKLYFSKQCWIDEVDGNGNRFIFYAFGGRENQEELKAAKQKLNALGLKSKKIIAQHQSLNHLVKNHQAIMEKLKNATEEIKRSLMQQESVKDAYSEFMFALKRLKILKAQMLELQKINNECYAKLISIENSFQHASITTKNPFKQENIVIYHRNYPKVSNSTAMLSHNESVNVIYEDHKIKKVPKSAIKG”, the protein production entry is “failed”.

As to “MSLETRARNSTRPASGLIDWEQARQAALRLSQWEQAPVDNRAFRREQYARMVALSEPLIADYLGVRLPEPVSRIFVFDRREWLEANIVSFSQLFRPIEEMYEKNGGGRGALGVLMNDVSSKLLGVQIGGLLGYLAQRVLGQYDLSLLSAEATGGSLYFVEPNIARVQQQLGLSDEDFRLWITLHEMTHAFEFEAYPWVRTYFRELLEQNFALVSGQMLSSGNSLVDMLMRLLQGIGSGQHWIETVLTPEQRAVFDRIQALMSLIEGYGNHVMNAVGRRLLPSFNQIEQQIAQRQRQRTMLDQMVFRLTGLDLKLAQYQQGEAFVNAVVAARGIQFASRVWERPENLPSMDEIRNPGQWIVRMDREGHHHHHH”, the protein production entry is reported as “not failed”.

With “MSLFAELTASVNAVRPGRTRMRNYDMPLIVAASTLLLLGLLMVYSASIALADGPRYASYGRYYFVIRHGLFLTAGLLAAAVVLSVPIRVWQRLAVPLFMFALILLVAVLIPGIGREVNGAHRWIPLGPLNFQPSELMKLAALLYAADYTVRKQEHMQAFSRGFLPMACALGGVGMLLLLEPDLGAFMVIVAIAIGILFLGGINGKYFSSLLAVLVGTFLMLIWVSPWRRARLFAYLDPWNEANAYGSAYQLSHSLIALGRGEWFGVGLGASVEKLHYLPEAHTDFLMAVVGEELGFAGVMLVITLFAIIVYRGFDIGRQAIAMERTFAGLVAHGVAMWVGVQAFINMGVCLGLLPTKGLTLPLMSYGGSGIVMNLCALAMLIRVDVENRVMMRGGRV”, the protein production entry is on record as “failed”.

On to “MSLFIYEVLIRLFMTFILSLLLTPLVKLLAFRIGAYDAPGERRINTKNMPTAGGLAIYIAFASSCLLIFRSIIPQDYIWPIILAGGMVVLTGLIDDIKEITPMKKTIGILLAALVIYFVAGIRIDFVTLPVVGMIDLRWFSLPLTLLWILAITNAVNLIDGLDGLASGVSIIGLTTIGITGYFFLHAKTVYIPIVIFILVASIAGFFPYNFYPAKIFLGDTGALFLGFMIAVMSLQGLKNATFITVITPMVILGVPITDTVYAIIRRLLNKKPISSADKMHLHHRLLSLGFTHKGAVMTIYALALVFSFVSLLFSYSSTVASILLIVFCLIGLELFIELIGLVGEGHQPLMYLLRILGNREYRQEQMKKRLGKHSKRK”, for which the protein production entry is given as “failed”.

“MSLFKRSVVSEITSHAGVVFSTLVVVWLSVLLVRLLGEAAGGSIGADVVLGLAAFSTITALPTILAVSLFIAVLTTVTRNYRESEMVVWFASGLSLADWLRPVARVAVPIAMLVAALTLVASPWAYRQIGEYRERFEQRSDLSKVTAGQFAESGRGDRVFFAEDPVRPGDELGAVFARSIDPEWLSVLTASNARSETLPNGDRFLVLGEGHRYDLKPGTPEIRLVNFDQYGVRLESKAGEDPMAEARAAAERSSKARSTMQLVQDNTDSSWSQIMWRVAMPLAALNLALLAIPLGAVNPRLGRSGDLLIAGLVGLLYMNMINLSRAWISSGKISFSIGVWAVHAVVALLAAYLLMRRLRVKAPRNAGRGA”: the protein production result is given as “failed”.

As to “MSLGRFVRHALITAGTKGLGKQVTEKLLAKGYSVTVTYHSDTTAMETMKETYKDVEERLQFVQADVTKKEDLHKIVEEAMSHFGKIDFLINNAGPYVFERKKLVDYEEDEWNEMIQGNLTAVFHLLKLVVPVMRKQNFGRIINYGFQGADSAPGWIYRSAFAAAKVGLVSLTKTVAYEEAEYGITANMVCPGDIIGEMKEATIQEARQLKEHNTPIGRSGTGEDIARTISFLCEDDSDMITGTIIEVTGAVDVIHREGHHHHHH”, the protein production entry is “not failed”.

Take “MSLHGKLIQFHKFGNPKDVLQVEYKNIEPLKDNEVFVRMLVRPINPSDLIPITGAYAHRIPLPNIPGYEGVGIVENVGAFVSRELIGKRVLPLRGEGTWQEYVKTSADFVVPIPDSIDDFTAAQMYINPLTAWVTCTETLNLQRNDVLLVNACGSAIGHLFAQLSQILNFRLIAVTRNNKHTEELLRLGAAYVIDTSTAPLYETVMELTNGIGADAAIDSIGGPDGNELAFSLRPNGHFLTIGLLSGIQVNWAEIVTKAKVHANIFHLRHWNDEVSPYKWQETFRHLIRLVENEQLRFMKVHSTYELADVKAAVDVVQSAEKTKGKVFLTSYEGHHHHHH”: the protein production entry is reported as “not failed”.

With “MSLIILTRDDEPRIFTPDSDAASPALHSTSPLPDPASASPLHREEKILPKVCNIVSCLSFSLPASPTDSGLASPTIITREGQQFWAKCLIWKYQLYLHGLHKKSDGRRDKQISASPST”, the protein production result was “failed”.

As to “MSLILLGALSLASSTFAQTWIWYPGDYEIWLGNQMNNRRTERGAFFPPFWKTDSHYVVVEFSKVLNLSEPEEVFIAAEGTYNVKLDGKLQFGMPETLLLPAGKHSLNIKVWNQATPPTIYVKGKTVNSDSSWRVTYEDKEWIDESGKASDTSATIYMDAGCWNFDGATQRPSQFSLMREPQQPVAKTEQPEGGILYDFGKETFGFITLKNLSGKGKIDLYYGESPEEAKDKAYCETLDKLLLEPGQITDLAIRSTSPLHHSDNEYTLENSKAFRYVYITHEPEVQIGEVSMQYEYLPEEYRGNFRCNDEELNCIWEVGAYTMHLTTREFFIDGIKRDRWVWSGDAIQSYLMNYYLFFDSESVKRTIWLLRGKDPVTSHSNTIMDYTFYWFLSVYDYYMYSGDRHFVNQLYPRMQTMMDYVLGRTNKNGMVEGMSGDWVFVDWADGYLDKKGELSFEQVLFCRSLETMALCADLVGDKDGQQKYEKLASALKAKLEPTFWNNQKQAFVHNCVDGRQSDAVTRYANMFSVFFDYLNADKQQAIKQSVLLNDEILKITTPYMRFYELEALCALGEQETVMKEMKAYWGGMLKAGATSFWEKYNPEESGTQHLAMYGRPYGKSLCHAWGASPIYLLGKYYLGVKPTKEGYKEFAVSPVLGGLKWMEGTVPTPNGDIHVYMDNKTIKVKATEGKGYLTIQSRRQPKANMGTVEKVSEGVWRLWIDSPEERIVTYRLEGHHHHHH”, the protein production entry is given as “not failed”.

Take “MSLILYDYFRSTACYRVRIALNLKKIAYEKIEVHLVNNGGEQHSLQYHQINPQELVPSLDINGQILSQSMAIIDYLEEIHPEMPLLPKDPFMKATLKSMALIVACDMHPLNNLRVLNRLKEQFNANEEQVLEWYHHWLKTGFDAFEEKLGALERDKPVCFGSEVGLADVCLIPQVYNAHRFHFDMASYPIINEINEYCLTLPAFHDAAPEAISSEGHHHHHH”: the protein production result is on record as “not failed”.
